Where no end group is shown, it is not given here. TMR‑5‑maleimide = tetramethylrhodamine-5-maleimide
B1: β-annulus-EE peptide (peptide)
peptide: INHVGGTGGAIMAPVAVTRQLVGSEE
notes: 24-residue β-annulus peptide involved in the formation of the dodecahedral internal skeleton of tomato bushy stunt virus (capsid protein); two anionic amino acids (Glu) added at the C-terminal side by design; Self-assembles into the anionic artificial viral capsid; also called 26-residue β-annulus-EE peptide; source: synthetic peptide (Fmoc solid-phase method, purified by reverse-phase HPLC)
B2: TMR-β-annulus-EE peptide (peptide)
peptide: C(TMR‑5‑maleimide)INHVGGTGGAIMAPVAVTRQLVGSEE
notes: Cys added at the N-terminus to carry the TMR dye; 24-residue β-annulus peptide involved in the formation of the dodecahedral internal skeleton of tomato bushy stunt virus (capsid protein); two anionic amino acids (Glu) added at the C-terminal side by design; also called Cys-β-annulus-EE peptide modified with TMR-maleimide; source: synthetic peptide (Fmoc solid-phase method; Michael addition of …)

How the values were obtained:
[1] = biological target: the molecule itself; test: dynamic light scattering; 90 μM β-annulus-EE peptide and 10 μM TMR-β-annulus-EE peptide co-assembled (molar ratio 9:1) in 10 mM phosphate buffer (pH 7.0) containing 1% DMSO, 25 °C
β-annulus-EE peptide = biological target: B1; test: as above; details: both partners purified

Row | Binder | binding result [1] | binding result (β-annulus-EE peptide)
1 | B1 | binds | –
2 | B2 | – | binds
